The values below come from patent US20170137520A1 (Merck Sharp & Dohme, published 2017).

Changes are numbered by the printed parent chain. Numbers in names are those of the source.

The Kd is the equilibrium constant for the complex coming apart. A high value points to weaker binding. In general, koff refers to the first-order rate constant of dissociation. A high value points to a short-lived complex. What is called kon is the second-order rate constant of association. Low readings indicate slow association, high ones fast association.

The target in assay [1] is T1, human CTLA-4 expressed on cell surface (hCTLA4-overexpressing CHO-K1 cells) (human, UniProt P16410 36-223).
T1 construct: The construct expressed in the cells is not described further; also called huCTLA-4+ CHO-K cells; CTLA-4+ CHO-K1 cells
T1 sequence: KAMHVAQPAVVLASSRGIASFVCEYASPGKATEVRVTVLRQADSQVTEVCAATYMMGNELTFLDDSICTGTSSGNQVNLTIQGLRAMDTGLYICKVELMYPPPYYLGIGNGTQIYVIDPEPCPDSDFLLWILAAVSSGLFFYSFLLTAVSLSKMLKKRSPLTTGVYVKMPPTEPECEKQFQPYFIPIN
The assay can be described thus: competition flow cytometry (cFACS) on CHO-K1 hCTLA4 cells against a fixed concentration (EC30) of hCD86-hFc; MedianFI (PE). (In general: A flow cytometer gives signals particle by particle.)

Assay [2] concerns the target T1, human CTLA-4 expressed on cell surface …. The assay can be described thus: competition flow cytometry (cFACS) on CHO-K1 hCTLA4 cells against a fixed concentration (EC30) of hCD86-hFc; bound ligand detected via its human IgG Fc; MedianFI (PE). The source says: (§1) F023700906, a building block of F023700925, as well as F023701051, F023701054 and F023701061 blocked binding of human CTLA-4 to its ligands CD80 and CD86. Flow cytometry analysis of discovery batches of N73X variants (filled squares, filled triangles, filled triangles upside-down) of Nb F023700906 (filled circles) with fixed concentrations (EC30) of (A) hCD80-hFc or (B) hCD86-hFc on hCTLA4-overexpressing CHO-K1 cells. The ligands were detected via the human IgG Fc fusion protein. The flow cytometry data generated in this experiment are in FIG. 10 (A-B).

Assay [3] shares this target. The experiment in a line: competition flow cytometry (cFACS) on CHO-K1 hCTLA4 cells against a fixed concentration (EC30) of hCD80-hFc; MedianFI (PE).
The target in a further assay is T2, Cynomolgus CTLA-4-Fc (cynomolgus monkey, UniProt G7PL88 37-162).
T2 construct: also called cynomolgus monkey CTLA4-hFc; not shown: human Fc (hFc)
T2 sequence: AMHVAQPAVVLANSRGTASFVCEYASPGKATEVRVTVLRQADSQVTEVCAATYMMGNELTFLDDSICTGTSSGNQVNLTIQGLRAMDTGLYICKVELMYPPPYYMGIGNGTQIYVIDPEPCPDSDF
The experiment in a line: kinetic binding analysis on CTLA4-hFc; method not stated. The procedure: (§2) On-rate, off-rate and affinity were determined using human and cynomolgus monkey CTLA4-hFc (Table below).

Another assay deals with T3, Human CTLA-4-Fc (human, UniProt P16410 37-162, limits assumed).
T3 construct: also called human CTLA4-hFc; CTLA-4-Fc fusion molecule from human; not shown: human Fc (hFc)
T3 sequence: T2 sequence with N13S, T17I, M105L
The description is as above. The procedure: as §2

The target in assay [4] is T1, human CTLA-4 expressed on cell surface …. The experiment in a line: competition flow cytometry (cFACS) on CHO-K1 hCTLA4 cells against a fixed concentration (EC30) of hCD80-hFc; bound ligand detected via its human IgG Fc; MedianFI (PE).
Source text: as §1

B1: F023700906 Nanobody, CTLA4 binder 11F01 (L11V,A14P,Q45R,A74S,K83R,V89L,M96P,Q108L)-FLAG3-HIS6 (VHH)
VHH: EVQLVESGGGVVQPGGSLRLSCAASGGTFSFYGMGWFRQAPGKEREFVADIRTSAGRTYYADSVKGRFTISRDNSKNTVYLQMNSLRPEDTALYYCAAEPSGISGWDYWGQGTLVTVSS
notes: also called F02370906; Nb F023700906
As to B1, the “IC50 (read off the curve)” value is around 2 nM in assay [1], around 2 nM in assay [2], around 10 nM in assay [3] and around 10 nM in assay [4]. The dissociation constant (Kd) in the assay with Cynomolgus CTLA-4-Fc and with Human CTLA-4-Fc was 1.2 nM each time. The off-rate (koff) with Cynomolgus CTLA-4-Fc was determined as 0.0057 s⁻¹; in the assay with Human CTLA-4-Fc, 0.0059 s⁻¹. The kon with Cynomolgus CTLA-4-Fc came to 4.7e+06 M⁻¹ s⁻¹; with Human CTLA-4-Fc, 4.8e+06 M⁻¹ s⁻¹.

B2: F023701054 [11F01 (L11V,A14P,Q45R,N73T,A74S,K83R,V89L,M96P,Q108L)-FLAG3-HIS6] (VHH, name in Kabat numbering)
VHH: B1 VHH with N74T
notes: N73 is Kabat numbering
In the case of B2, the “IC50 (read off the curve)” value is around 2 nM in assay [1], around 2 nM in assay [2], around 10 nM in assay [3] and around 10 nM in assay [4].

B3: F023701061 [11F01 (L11V,A14P,Q45R,N73Y,A74S,K83R,V89L,M96P,Q108L)-FLAG3-HIS6] (VHH, name in Kabat numbering)
VHH: B1 VHH with N74Y
notes: N73 is Kabat numbering
In the case of B3, the “IC50 (read off the curve)” value in assay [1] is around 2 nM; in assay [2], around 2 nM; in assay [3], around 10 nM; in assay [4], around 10 nM.

B4: F023701051 [11F01 (L11V,A14P,Q45R,N73Q,A74S,K83R,V89L,M96P,Q108L)-FLAG3-HIS6] (VHH, name in Kabat numbering)
VHH: B1 VHH with N74Q
notes: N73 is Kabat numbering; also called F02371051
With B4, the “IC50 (read off the curve)” value was around 2 nM in assay [1], around 2 nM in assay [2], around 10 nM in assay [3] and around 10 nM in assay [4].
